Test results published in US20240228562A1, “NOVEL LIPOCALIN MUTEINS SPECIFIC FOR CONNECTIVE TISSUE GROWTH FACTOR (CTGF)” (PIERIS PHARMACEUTICALS GMBH, priority 2021, published 2024).
Where a chain is given by its changes, count along the chain named.

Assays:
[1] = system: TGF-β1-stimulated normal human lung fibroblasts (NHLFs); test: Binding to activated human lung fibroblasts; type: cell-based; conditions: 24 h incubation with 10 ng/ml TGF-β1; immunofluorescence of lipocalin scaffold
Experimental: Binding of the CTGF-targeting lipocalin muteins and fusion proteins disclosed herein to CTGF-expressing, TGF-β1-stimulated normal human lung fibroblasts (NHLFs) was tested by incubating NHLFs for 24 h with constructs and 10 ng/ml TGF-β1, which induces CTGF expression. NHLFs without TGF-β1 stimulation were included as negative control. Constructs were detected with a secondary antibody against the lipocalin scaffold coupled to AlexaFluor647 after NHLFs were fixed in 4% PFA and blocked with 5% BSA. Images were acquired on the Cytation5 Reader (Biotek). Signals were quantified in Gene5 software and normalized to the respective controls. For the experiments, cells were grown under conditions that facilitate pseudo-3D extracellular matrix deposition as described by Good et al. (Good et al., BMC Biomed Eng, 1:14 (2019)).
Representative data are shown in FIG. 4 and illustrate the ability of the CTGF-targeting lipocalin muteins and fusion proteins disclosed herein to bind to activated human lung fibroblasts expressing CTGF in a concentration-dependent manner.

[2] = molecular target: T1, muCTGF domains 1 and 2 with human Fc tag (Mus musculus, UniProt P29268); test: ELISA binding to CTGF fragments, murine CTGF domains 1 and 2; conditions: coated 1 μg/ml, muteins from 1000 nM; for EC50: read-out: EC Murine CTGF1-2-huFc
T1 construct: purchased Evitria
Experimental: (§1) Binding of muteins to fragments of human and murine CTGF was tested by an ELISA assay. In detail, a 384-well plate suitable for fluorescence measurements (Greiner FLUOTRAC™ 600, black flat bottom, high-binding) was coated with 20 μl of human (R&D Systems, SEQ ID NO 79) and murine CTGF (Biozol, SEQ ID NO: 80) or fragments thereof (Evitria, huCTGF domains 1 and 2 with human Fc tag (SEQ ID NO 77) and muCTGF domains 1 and 2 with human Fc tag (SEQ ID NO 78)) at a concentration of 1 μg/ml in PBS over night at 4° C. After washing with PBS with 0.05% Tween 20, wells were blocked with 100 μl blocking buffer containing 0.1% Tween 20 and 2% BSA (PBS-T/BSA) for 1 h at room temperature. 20 μl of serially diluted muteins starting at 1000 nM were incubated in PBS-T/BSA for 1 h at room temperature.
(§2) The residual supernatants were discarded and 20 μl HRP-labeled anti-Strep-Tag antibody was added at a predetermined optimal concentration in PBS-T/BSA and incubated for 1 h at RT. After washing, 20 μl fluorogenic HRP substrate (QuantaBlu, Thermo) was added to each well, and the reaction was allowed to proceed for 5 to 25 minutes. The fluorescence intensity of every well on the plate was read using a fluorescence microplate reader (Tecan). Curve fitting was performed using GraphPad Prism 7 software.

[3] = molecular target: T2, human CTGF (Homo sapiens, UniProt P29279, H83D); test: ELISA binding to full-length human CTGF (Example 9); conditions: coated 1 μg/ml, muteins from 1000 nM, read-out: EC Human CTGF
T2 construct: purchased R&D Systems
T2 sequence (P29279 27-349 H83D): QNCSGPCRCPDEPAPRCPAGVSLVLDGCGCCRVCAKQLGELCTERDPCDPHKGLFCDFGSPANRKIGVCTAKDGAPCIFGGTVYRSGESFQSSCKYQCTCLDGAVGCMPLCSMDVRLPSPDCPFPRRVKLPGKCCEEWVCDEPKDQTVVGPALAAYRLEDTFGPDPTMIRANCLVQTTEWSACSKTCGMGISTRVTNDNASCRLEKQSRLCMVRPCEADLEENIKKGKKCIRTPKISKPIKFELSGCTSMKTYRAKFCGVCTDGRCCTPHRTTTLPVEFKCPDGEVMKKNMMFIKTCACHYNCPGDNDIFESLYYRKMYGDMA
Experimental: as §1, §2

[4] = molecular target: T3, Murine CTGF (Mus musculus, UniProt P29268); test: ELISA binding to full-length murine CTGF (Example 9); conditions: coated 1 μg/ml, muteins from 1000 nM; for EC50: read-out: EC Murine CTGF
T3 construct: Fc (N); purchased Biozol
Experimental: as §1, §2

[5] = molecular target: T4, Rat CTGF (Rattus norvegicus, UniProt Q9R1E9); test: ELISA binding to rat CTGF (Example 9); conditions: muteins from 1000 nM; for EC50: read-out: EC Rat CTGF
T4 construct: purchased R&D Systems
T4 sequence (Q9R1E9 25-347): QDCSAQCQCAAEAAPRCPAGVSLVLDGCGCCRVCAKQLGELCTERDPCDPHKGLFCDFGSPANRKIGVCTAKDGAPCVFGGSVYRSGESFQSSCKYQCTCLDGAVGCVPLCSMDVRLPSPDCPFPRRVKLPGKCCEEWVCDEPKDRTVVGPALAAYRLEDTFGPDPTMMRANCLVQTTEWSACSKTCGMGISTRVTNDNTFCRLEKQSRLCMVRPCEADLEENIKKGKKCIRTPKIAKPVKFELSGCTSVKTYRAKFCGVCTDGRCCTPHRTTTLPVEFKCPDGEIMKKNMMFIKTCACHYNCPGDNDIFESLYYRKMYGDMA

[6] = system: cynomolgus CTGF; test: SPR binding kinetics and affinity, cynomolgus CTGF; design: key: B binding without determination of kinetics constants; conditions: 25° C., 1:1 binding model
Experimental: Surface plasmon resonance (SPR) was used to measure binding kinetics and affinity of the representative lipocalin muteins disclosed herein.
The binding of exemplary lipocalin muteins to human (Creative Biomart), cynomolgus, rat (R&D Systems) and mouse CTGF (Abbexa) was determined by SPR using a Biacore instrument (Cytiva, formerly GE Healthcare). Some targets were fused to a human IgG1 Fc tag, and captured via the anti-human IgG antibody kit, others were directly immobilized.
For some measurements, human CTGF with a human IgG1 Fc Tag or rat or murine CTGF without a tag were directly immobilized to a CM5 Chip. The carboxyl groups on the chip were activated using 1-ethyl-3-(3-dimethylaminopropyl)-carbodiimide (EDC) and N-hydroxysuccinimide (NHS). Subsequently, the targets at a concentration of 3-5 μg/mL in 10 mM sodium acetate (pH) 4.5 were applied at a flow rate of 10 μL/min until an immobilization level of 300-1100 resonance units was achieved. Residual non-reacted NHS-esters were blocked by passing a solution of 1 M ethanolamine across the surface. The reference channel was activated/deactivated. For the capture setting, targets with an IgG Fc Tag at 0.25-2.5 μg/mL in HBS-EP+ buffer were captured by the anti-human IgG-Fc antibody at the chip surface for 180 s at a flow rate of 10 μL/min.
The binding assay was carried out with a contact time of 180 s, a dissociation time of 900-3600 s and a flow rate of 30 μL/min. All measurements were performed at 25° C. […] For the directly immobilized targets, the same regeneration conditions were used. Prior to the protein measurements, three startup cycles were performed for conditioning purposes. Data were evaluated with Biacore Evaluation software. Double referencing was used and the 1:1 binding model was used to fit the raw data.
The values determined for kon, koff and the resulting equilibrium dissociation constant (KD) for exemplary lipocalin muteins are summarized in Table 4.

T1 sequence (P29268 with tags, fused parts or gaps): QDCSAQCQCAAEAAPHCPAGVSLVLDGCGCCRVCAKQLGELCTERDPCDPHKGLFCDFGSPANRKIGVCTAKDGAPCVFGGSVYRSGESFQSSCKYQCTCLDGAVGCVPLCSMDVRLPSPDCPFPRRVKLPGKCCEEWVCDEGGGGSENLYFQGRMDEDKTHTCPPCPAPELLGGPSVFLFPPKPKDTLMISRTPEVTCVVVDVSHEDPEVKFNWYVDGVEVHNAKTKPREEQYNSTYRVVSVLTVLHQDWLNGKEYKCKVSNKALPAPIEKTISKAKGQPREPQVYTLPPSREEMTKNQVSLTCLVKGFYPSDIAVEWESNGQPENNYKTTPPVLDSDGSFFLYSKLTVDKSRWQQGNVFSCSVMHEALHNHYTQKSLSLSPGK
Chain of cynomolgus CTGF (as listed by the source): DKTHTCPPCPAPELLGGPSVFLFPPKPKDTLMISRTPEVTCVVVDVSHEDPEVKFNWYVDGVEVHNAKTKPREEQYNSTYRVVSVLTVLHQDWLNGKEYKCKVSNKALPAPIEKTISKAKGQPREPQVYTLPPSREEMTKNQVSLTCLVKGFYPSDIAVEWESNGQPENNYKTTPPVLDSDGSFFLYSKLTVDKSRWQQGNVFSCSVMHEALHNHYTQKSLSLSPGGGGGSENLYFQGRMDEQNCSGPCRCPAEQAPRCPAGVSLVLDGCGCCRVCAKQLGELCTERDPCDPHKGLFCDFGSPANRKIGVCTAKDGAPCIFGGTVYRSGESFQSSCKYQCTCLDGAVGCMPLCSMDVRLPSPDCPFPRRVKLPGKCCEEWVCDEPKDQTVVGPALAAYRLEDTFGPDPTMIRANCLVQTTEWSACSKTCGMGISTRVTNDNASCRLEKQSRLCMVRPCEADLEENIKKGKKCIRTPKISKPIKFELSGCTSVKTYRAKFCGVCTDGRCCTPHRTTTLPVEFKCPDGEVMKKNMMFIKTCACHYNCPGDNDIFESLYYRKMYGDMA
T3 sequence (P29268 with tags, fused parts or gaps): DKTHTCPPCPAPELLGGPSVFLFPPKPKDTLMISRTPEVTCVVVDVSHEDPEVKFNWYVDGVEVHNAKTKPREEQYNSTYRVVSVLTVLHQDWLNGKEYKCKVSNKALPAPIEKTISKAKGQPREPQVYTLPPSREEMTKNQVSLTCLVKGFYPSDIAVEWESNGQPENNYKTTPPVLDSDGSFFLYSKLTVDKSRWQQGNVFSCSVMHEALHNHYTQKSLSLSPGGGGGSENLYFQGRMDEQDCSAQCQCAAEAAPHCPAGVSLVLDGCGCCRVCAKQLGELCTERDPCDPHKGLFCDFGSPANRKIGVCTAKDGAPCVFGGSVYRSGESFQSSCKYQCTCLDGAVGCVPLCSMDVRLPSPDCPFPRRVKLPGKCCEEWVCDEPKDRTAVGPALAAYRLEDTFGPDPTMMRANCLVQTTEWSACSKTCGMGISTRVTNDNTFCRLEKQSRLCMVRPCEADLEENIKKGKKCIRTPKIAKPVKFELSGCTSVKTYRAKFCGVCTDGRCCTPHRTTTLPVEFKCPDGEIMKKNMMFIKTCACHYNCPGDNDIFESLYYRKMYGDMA

B1: SEQ ID NO: 74: fusion protein comprising two CTGF-binding lipocalin muteins (protein)
chain: QDSTSDLIPAPPLSKVPLQQNFQDNQFQGKWYVVGLAGNAILREDKQPAKMFATIYELKEDKSYDVTSVRFEAKSCKYTIKTFVPGSQPGEFTAGYIKSAPGQTSTLVRVVSTNYNQHAMVFFKHVTQNREIFVITLYGRTKELTSELKENFIRFSKSLGLPENHIVFPVPIDQCIDGGGGGSGGGGSGGGGSQDSTSDLIPAPPLSKVPLQQNFQDNQFQGKWYVVGWAGNVKLREDKQPQKMSATIYELKEDKSYDVTEVVFEQKKCHYIIKTFVPGSQPGEFTAGDIKSPPGYTSSLVRVVSTNYNQHAMVFFKKVSQNREFFWITLYGRTKELTSELKENFIRFSKSLGLPENHIVFPVPIDQCIDG
modifications: fusion protein
[1]
  Binding to TGFβ-activated NHLFs: binding

B2: SEQ ID NO: 3: parent CTGF-binding hNGAL lipocalin mutein (protein)
chain: QDSTSDLIPAPPLSKVPLQQNFQDNQFHGKWYVVGRAGNNRLREDKDPPKMWATIYELKEDKSYNVTHVHFMTKKCRYIIDTFVPGSQPGEFTLGAIKSGPGMTSPLVRIVSTNYNQHAMVFFKWVNQNREWFTITLYGRTKELTSELKENFIRFSKSLGLPENHIVFPVPIDQCIDG
modifications: lipocalin mutein
[2]
  EC Murine CTGF1-2-huFc: n.b.
[3]
  EC50: 6.9 nM
[4]
  EC Murine CTGF: n.b.
[5]
  EC Rat CTGF: weak

B3: SEQ ID NO: 23: optimized CTGF-binding hNGAL lipocalin mutein (protein)
chain: QDSTSDLIPAPPLSKVPLQQNFQDNQFQGKWYVVGVAGNAILRPDKQPAKMFATIYELKEDKSYDVTSVRFEAKSCKYTIKTFVPGSQPGEFTSGQIKSAPGQTSTLVRVVSTNYNQHAMVFFKHVSQNREIFVITLYGRTKELTSELKENFIRFSKSLGLPENHIVFPVPIDQCIDG
modifications: lipocalin mutein
[6]
  cynomolgus CTGF KD: B
  cynomolgus CTGF koff: B
  cynomolgus CTGF kon: B
[1]
  Binding to TGFβ-activated NHLFs: binding

B4: SEQ ID NO: 15: optimized CTGF-binding hNGAL lipocalin mutein (protein)
chain: B3 chain with V36L, P44E, S94A, Q96Y, S127T
modifications: lipocalin mutein
[6]
  cynomolgus CTGF koff: 7.57e-05 s⁻¹
  cynomolgus CTGF kon: 107000 M⁻¹ s⁻¹

B5: SEQ ID NO: 9: parent CTGF-binding hNGAL lipocalin mutein (protein)
chain: B3 chain with Q28H, V36L, A40K, P44I, K74R, K77S, S94A, Q96N, I132T
modifications: lipocalin mutein
[2]
  EC50: 5.8 nM
[3]
  EC50: 14 nM
[4]
  EC50: 11 nM
[5]
  EC50: 30 nM

B6: SEQ ID NO: 29: parent CTGF-binding hNGAL lipocalin mutein (protein)
chain: QDSTSDLIPAPPLSKVPLQQNFQDNQFHGKWYVVGWAGNIKLREDKDPFKMSATIYELKEDKSYNVTEVVFEQKKCHYIIKTFVPGSQPGEFTLGDIKSPPGETSSLVRVVSTNYNQHAMVFFKKVFQNREFFWITLYGRTKELTSELKENFIRFSKSLGLPENHIVFPVPIDQCIDG
modifications: lipocalin mutein
[2]
  EC50: 17 nM
[3]
  EC50: 11 nM
[4]
  EC Murine CTGF: n.b.
[5]
  EC50: 20 nM

B7: SEQ ID NO: 7: parent CTGF-binding hNGAL lipocalin mutein (protein)
chain: QDSTSDLIPAPPLSKVPLQQNFQDNQFHGKWYVVGLAGNYGLRTDKRPSKMFATIYELKEDKSYDVTSVRFEQERCHYTIRTFVPGSQPGEFTTGSIKSRPGQTSSLVRVVSTNYNQHAMVFFKSVIQNREYFAITLYGRTKELTSELKENFIRFSKSLGLPENHIVFPVPIDQCIDG
modifications: lipocalin mutein
[2]
  EC50: 14 nM
[3]
  EC50: 34 nM
[4]
  EC50: 29 nM
[5]
  EC50: 41 nM

B8: SEQ ID NO: 25: parent CTGF-binding hNGAL lipocalin mutein (protein)
chain: QDSTSDLIPAPPLSKVPLQQNFQDNQFHGKWYVVGMAGNFRLREDKDPSKMGATIYELKEDKSYNVTQVQFDDKKCLYVIETFVPGSQPGEFTLGAIKSFPGFTSQLVRVVSTNYNQHAMVFFKKVYQNREVFWITLYGRTKELTSELKENFIRFSKSLGLPENHIVFPVPIDQCIDG
modifications: lipocalin mutein
[2]
  EC50: 14 nM
[3]
  EC50: 11 nM
[4]
  EC Murine CTGF: n.b.
[5]
  EC50: 23 nM
